Test results published in the supplement of paper PMC9112550, “Optimization of the antimicrobial peptide Bac7 by deep mutational scanning” (BMC Biology, 2022).

Tested on: Escherichia coli TOP10
Test: shrunken log2 fold change of peptide-encoding DNA abundance (4.5 h post-induction vs induction); higher = less antimicrobial activity (less host growth inhibition)
Settings: time post-induction: 4.5 h; library: site-saturation at positions 5, 18, 19, 20
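Note: peptides expressed intracellularly from a pBAD plasmid library in pooled LB shake-flask culture, induced with 0.3% L-arabinose, DNA abundance read by NGS, three biological replicates, DESeq2 with apeglm shrinkage.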

Row | Sequence | shrunken log2 fold change
1 | RRIRYRPPRLPRPRPRPMRQPRP | -0.0148
2 | RRIRVRPPRLPRPRPRPQVQPRP | -0.208
3 | RRIRLRPPRLPRPRPRPKGEPRP | 0.149
4 | RRIRRRPPRLPRPRPRPAESPRP | 0.256
5 | RRIRPRPPRLPRPRPRPLPHPRP | -0.206
6 | RRIRVRPPRLPRPRPRPIEEPRP | -0.181
7 | RRIRNRPPRLPRPRPRPSKAPRP | -0.0014
8 | RRIRERPPRLPRPRPRPWLIPRP | -0.397
9 | RRIRPRPPRLPRPRPRPRFKPRP | 0.166
10 | RRIRKRPPRLPRPRPRPTMCPRP | 0.00679
11 | RRIRMRPPRLPRPRPRPYHWPRP | -0.101
12 | RRIRYRPPRLPRPRPRPCTPPRP | -1.14
13 | RRIRSRPPRLPRPRPRPIIHPRP | -0.526
14 | RRIRIRPPRLPRPRPRPFMMPRP | 0.0298
15 | RRIRMRPPRLPRPRPRPMRSPRP | 1.67
16 | RRIRTRPPRLPRPRPRPLGAPRP | 0.0945
17 | RRIRPRPPRLPRPRPRPPQMPRP | 0.531
18 | RRIRFRPPRLPRPRPRPKTSPRP | -0.0999
19 | RRIRTRPPRLPRPRPRPFEVPRP | -0.101
20 | RRIRKRPPRLPRPRPRPTPPPRP | 1.25
21 | RRIRCRPPRLPRPRPRPACCPRP | 0.306
22 | RRIRTRPPRLPRPRPRPTRTPRP | 0.767
23 | RRIRARPPRLPRPRPRPAMVPRP | 0.109

Row | Sequence | shrunken log2 fold change
24 | RRIRHRPPRLPRPRPRPHKDPRP | -0.384
25 | RRIRARPPRLPRPRPRPANEPRP | 0.173
26 | RRIRIRPPRLPRPRPRPHVCPRP | 0.41
27 | RRIRGRPPRLPRPRPRPNFRPRP | -0.00192
28 | RRIRNRPPRLPRPRPRPHVSPRP | -0.00166
29 | RRIRGRPPRLPRPRPRPCHTPRP | -0.0963
30 | RRIRTRPPRLPRPRPRPQGPPRP | 0.0175
31 | RRIRPRPPRLPRPRPRPFRRPRP | 0.0448
32 | RRIRIRPPRLPRPRPRPKYKPRP | -0.775
33 | RRIRLRPPRLPRPRPRPCCGPRP | -0.00366
34 | RRIRHRPPRLPRPRPRPHRRPRP | 0.0762
35 | RRIRERPPRLPRPRPRPYCMPRP | -1.06
36 | RRIRGRPPRLPRPRPRPGSWPRP | 0.938
37 | RRIRCRPPRLPRPRPRPYYNPRP | -1.2
38 | RRIRVRPPRLPRPRPRPRAMPRP | 0.213
39 | RRIRQRPPRLPRPRPRPTQFPRP | 0.14
40 | RRIRWRPPRLPRPRPRPMTDPRP | 0.0543
41 | RRIRPRPPRLPRPRPRPNKGPRP | -0.266
42 | RRIRCRPPRLPRPRPRPRKTPRP | 0.103
43 | RRIRLRPPRLPRPRPRPTREPRP | 0.794
44 | RRIRTRPPRLPRPRPRPEHPPRP | 0.716
45 | RRIRERPPRLPRPRPRPAVRPRP | 0.00239
46 | RRIRRRPPRLPRPRPRPDEQPRP | 0.237

Row | Sequence | shrunken log2 fold change
47 | RRIRCRPPRLPRPRPRPAVGPRP | 0.155
48 | RRIRWRPPRLPRPRPRPEQHPRP | 0.339
49 | RRIRIRPPRLPRPRPRPKFQPRP | -0.327
50 | RRIRFRPPRLPRPRPRPKMRPRP | 0.223
51 | RRIRPRPPRLPRPRPRPHQPPRP | -0.129
52 | RRIRRRPPRLPRPRPRPKKNPRP | 0.496
53 | RRIRVRPPRLPRPRPRPHAMPRP | -0.18
54 | RRIRQRPPRLPRPRPRPWYSPRP | -0.0193
55 | RRIRKRPPRLPRPRPRPGNQPRP | 0.0471
56 | RRIRHRPPRLPRPRPRPDVCPRP | -0.258
57 | RRIRFRPPRLPRPRPRPKGIPRP | -0.0392
58 | RRIRMRPPRLPRPRPRPNQYPRP | -0.218
59 | RRIRCRPPRLPRPRPRPKVSPRP | 0.0213
60 | RRIRQRPPRLPRPRPRPNYWPRP | -0.251
61 | RRIRERPPRLPRPRPRPQESPRP | -0.239
62 | RRIRNRPPRLPRPRPRPYSDPRP | -0.031
63 | RRIRRRPPRLPRPRPRPIGDPRP | 0.257
64 | RRIRCRPPRLPRPRPRPCFTPRP | -0.552
65 | RRIRARPPRLPRPRPRPNHSPRP | -0.55
66 | RRIRNRPPRLPRPRPRPWDEPRP | 0.0165
67 | RRIRCRPPRLPRPRPRPWNSPRP | -0.529
68 | RRIRPRPPRLPRPRPRPGIHPRP | -0.137
69 | RRIRARPPRLPRPRPRPWLIPRP | 0.111

Row | Sequence | shrunken log2 fold change
70 | RRIRVRPPRLPRPRPRPFIVPRP | -0.285
71 | RRIRIRPPRLPRPRPRPIQCPRP | 0.0629
72 | RRIRWRPPRLPRPRPRPSWKPRP | -0.0536
73 | RRIRHRPPRLPRPRPRPDCGPRP | -0.131
74 | RRIRDRPPRLPRPRPRPHALPRP | -0.225
75 | RRIRNRPPRLPRPRPRPMDHPRP | 0.0184
76 | RRIRARPPRLPRPRPRPWPQPRP | 0.403
77 | RRIRIRPPRLPRPRPRPPQNPRP | -0.33
78 | RRIRFRPPRLPRPRPRPSLHPRP | -0.558
79 | RRIRPRPPRLPRPRPRPTYRPRP | -0.236
80 | RRIRGRPPRLPRPRPRPNVGPRP | 0.125
81 | RRIRIRPPRLPRPRPRPYTMPRP | -0.758
82 | RRIRMRPPRLPRPRPRPCGAPRP | 1.15
83 | RRIRCRPPRLPRPRPRPAADPRP | 0.341
84 | RRIRVRPPRLPRPRPRPYLTPRP | -0.575
85 | RRIRMRPPRLPRPRPRPDRYPRP | -0.0269
86 | RRIRNRPPRLPRPRPRPGWPPRP | 0.541
87 | RRIRGRPPRLPRPRPRPQSMPRP | 0.276
88 | RRIRPRPPRLPRPRPRPRWNPRP | 0.115
89 | RRIRRRPPRLPRPRPRPNCYPRP | -0.0134
90 | RRIRMRPPRLPRPRPRPAFHPRP | 0.319
91 | RRIRERPPRLPRPRPRPDKDPRP | -0.433
